The target of this assay is HMG1 purified from calf (bovine) thymus (calf (bovine)) (UniProt P10103). Briefly: cell-based or functional assay.
Chain of HMG1 purified from calf (bovine) thymus (calf (bovine)) (P10103 2-215 limits assumed): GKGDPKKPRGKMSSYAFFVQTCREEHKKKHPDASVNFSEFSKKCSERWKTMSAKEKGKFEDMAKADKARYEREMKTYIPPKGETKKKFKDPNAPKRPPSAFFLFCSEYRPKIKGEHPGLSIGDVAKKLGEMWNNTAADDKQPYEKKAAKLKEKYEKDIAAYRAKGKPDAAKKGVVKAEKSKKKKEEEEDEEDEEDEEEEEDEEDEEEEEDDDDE

The substance RAGE-Fc fusion protein showed an IFN-a release from mouse bone marrow cells treated with CpG-A and thymus HMG1 of over 95%.

Source of the values: patent publication US20090169546A1.
